Results on two molecules are retold here after article PMC9518701 (2022).

Test [1] concerns the target SARS-CoV-2 spike protein receptor binding domain (RBD) (SARS-CoV-2, UniProt P0DTC2 319-541).
Test [2] addresses human neonatal Fc receptor (FcRn) (human, UniProt P55899 24-365). The test can be described thus: SPR; pH 6.0. (In general: Surface plasmon resonance follows binding to a sensor surface in real time, without labels.)

human neonatal Fc receptor (FcRn), sequence (P55899 24-297, chain 1 of 2): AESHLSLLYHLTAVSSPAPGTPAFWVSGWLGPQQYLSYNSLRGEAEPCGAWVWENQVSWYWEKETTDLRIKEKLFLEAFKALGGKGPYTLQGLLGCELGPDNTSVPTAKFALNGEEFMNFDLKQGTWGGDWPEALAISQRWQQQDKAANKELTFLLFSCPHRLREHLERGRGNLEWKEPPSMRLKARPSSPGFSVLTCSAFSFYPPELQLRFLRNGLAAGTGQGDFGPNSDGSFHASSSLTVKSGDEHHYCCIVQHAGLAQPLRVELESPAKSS
human neonatal Fc receptor (FcRn), sequence (chain, as listed by the source, chain 2 of 2): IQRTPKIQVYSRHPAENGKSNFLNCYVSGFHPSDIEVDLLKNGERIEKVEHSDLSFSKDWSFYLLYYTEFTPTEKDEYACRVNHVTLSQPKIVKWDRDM

B1: romlusevimab (BRII-198) (antibody)
chain 1: QVQLVQSGSELKKPGASVKVSCKASGYTFTTYVMNWVRQAPGQGLEWMGWINTNTGNPTYAQGFTGRFVFSLDTSVSTASLQISSLKAEDTAVYYCSSEITTLGGMDVWGQGTTVTVSS
chain 2: SYVLTQPPSVSVAPGKTARITCGGNNIGSKSVHWYQQKPGQAPVLVIYYDSDRPSGIPERFSGSNSGNTATLTISGVEAGDEADYYCQVWDSISDHRVFGGGTKLTVL
Consider B1, for which the IC50 (usually the concentration needed to halve the response being measured) in test [1] was greater than 200 nM.

B2: P2B-1G5 (precursor of romlusevimab) (antibody)
chain 1: QVQLVQSGSELKKPGASVKVSCKASGYTFTTYVMNWVRQAPGQGLEWMGWINTNTGNPTYAQGFTGRFVFSLDTSVSTASLQISSLKAEDTAVYYCSCEITTLGGMDVWGQGTTVTVSS
chain 2: SYVLTQPPSVSVAPGKTARITCGGNNIGSKSVHWYQQKPGQAPVLVIYYDSDRPSGIPERFSGSNSGNTATLTISGVEAGDEADYYCQVWDSISDHRVFGGGTKLTVL
modifications: soluble extracellular FCGRT with beta-2-microglobulin assumed by convention (subunits and limits not given); assayed at pH 6.0
On to B2, for which the Kd (commonly the constant that tells how readily two partners part at equilibrium) in test [2] came out at 2.51 nM.
